Test: yeast display, Sf9 membrane polyspecificity reagent, FACS + sequencing; frameworks hold sequencing errors
Summary of the method: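 Using colony PCR, genes from sorted yeast display clones were amplified, then sequenced on MiSeq at 2 × 250 and filtered by CDR length. The clones had been stained with 10% biotinylated, detergent-solubilized Sf9 membrane reagent for 1 hour at 4 °C and sorted by FACS into low and high (top ~1%) gates on anti-HA and streptavidin fluorescence. Polyreactivity labels come from the gate of origin.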
In the case of “QVQLVESGGGLVQAGGSLRLSCAASGRIFRYNTLGWYRQAPGKERELVAAINSSGGRTYYADSVKGRFTISRDNAKNTVYLQMNSLKPEDTAVYYCAAVIYVLSGPGYDYWGQGTQVTVSS”, the “polyreactivity (PSR sort gate)” value is reported as “high polyreactivity”. With “QVQLVESGGGLVQAGGSLRLSCAASGRIFRYNTMGWYRQAPGKERELVADINSGGSTYADSVKGRFTISRDNAKNTVYLQMNSLKPEDTAVYYCNADSGLRAGYYYGYDYWGQGTQVTVSS” the “polyreactivity (PSR sort gate)” value was “low polyreactivity”. In the case of “QVQLVESGGGLVQAGGSLRLSCAASGRIFRYNTMGWYRQAPGKERELVADITSSDSSTYYADSVKGRFTISRDNAKNTVYLQMNSLKPEDTAVYYCAARDSGYGWRYYYWGQGTQVTVSS”, the “polyreactivity (PSR sort gate)” value is reported as “low polyreactivity”. In the case of “QVQLVESGGGLVQAGGSLRLSCAASGRIFRYNVMGWYRQAPGKERELVAAITSRGGSTYYADSVKGRFTISRDNAKNTVYLQMNSLKPEDTAVYYCAAYPWEFGTYNYWGQGTQVTVSS”, the “polyreactivity (PSR sort gate)” value is reported as “high polyreactivity”. For “QVQLVESGGGLVQAGGSLRLSCAASGRIFRYYAKGWYRQAPGKERELVARIRWSGGSTYYADSVKGRFTISRDNAKNTVYLQMNSLKPEDTAVYYCNAGSWSYRYNYWGQGTQVTVSS”, the “polyreactivity (PSR sort gate)” value was “high polyreactivity”. For “QVQLVESGGGLVQAGGSLRLSCAASGRIFRYYAMGWYRQAAGKERELVAAISYSGGRTYYADSVKGRFTISRDNAKNTVYVQMNSLKPEDTAVYYCASVWHSQSSYVPFDSWGQGTQVTVSS”, the “polyreactivity (PSR sort gate)” value was “high polyreactivity”. With “QVQLVESGGGLVQAGGSLRLSCAASGRIFRYYAMGWYRQAPAKERELVASISRRGGSTNYADSVKGRFTISRDNAKNTVYLQMNSLKPEDTAVYYCNAENWSPRGLYNYWGQGTQVTVSS” the “polyreactivity (PSR sort gate)” value was “high polyreactivity”. For “QVQLVESGGGLVQAGGSLRLSCAASGRIFRYYAMGWYRQAPGKERELVAAIRWTAGSTYYADSVKGRFTISRDIAKNTVYLQMNSLKPEDTAVYYCATDVWKYGRYEYWGQGTQVTVSS”, the “polyreactivity (PSR sort gate)” value was “low polyreactivity”. In the case of “QVQLVESGGGLVQAGGSLRLSCAASGRIFRYYAMGWYRQAPGKERELVAAISRRGSSTYYADSVKGRFTISRDNAKNTVYLQMNSLKPEDTAVYYCSAKRQVYQSESTYEYWGQGTQVTVSS”, the “polyreactivity (PSR sort gate)” value is reported as “high polyreactivity”. In the case of “QVQLVESGGGLVQAGGSLRLSCAASGRIFRYYAMGWYRQAPGKERELVAAISVSGGSTYYADSVKGRFTISRDNAKNTVYLKMNSLKPEDTAVYYCAARIKTYSKRYYWGQATQVTVSS”, the “polyreactivity (PSR sort gate)” value is reported as “high polyreactivity”. For “QVQLVESGGGLVQAGGSLRLSCAASGRIFRYYAMGWYRQAPGKERELVAAISWSGGRTYYADSVKGRFTISRDNAKNSVYLQMNSLIPEDTAVFYCYAGYLYPGYFVREYDYWGQGTQVTVSS”, the “polyreactivity (PSR sort gate)” value was “high polyreactivity”. For “QVQLVESGGGLVQAGGSLRLSCAASGRIFRYYAMGWYRQAPGKERELVAAITAGGGTTYYADSVKGRFTISRDNAKNTVYLQMNSLKPEDTAVYYWAKDGRYYSHYNYWGQGTQVTVSS”, the “polyreactivity (PSR sort gate)” value was “high polyreactivity”. With “QVQLVESGGGLVQAGGSLRLSCAASGRIFRYYAMGWYRQAPGKERELVASSTYYADSVKGRFTISRDNAKNTVYLQMNSLKPEDTAVYYCAAVKGTRGWYDYWGQGTQVTVSS” the “polyreactivity (PSR sort gate)” value was “high polyreactivity”. With “QVQLVESGGGLVQAGGSLRLSCAASGRIFRYYAMGWYRQATGKQRELVAAISSGVGNTYYADSVKGRFTISRDNAKNTVYLQMNSLKPEDTAVYYCNAKWRKFGTVRYDYWGQGTQVTVSS” the “polyreactivity (PSR sort gate)” value was “high polyreactivity”. In the case of “QVQLVESGGGLVQAGGSLRLSCAASGRIFRYYDMAWYTQAPGKEREFVAAITRSGAITYYADSVKGRFTKSRDNAKNTVYLQMNSLKPEDTAVYYCAARYWAKFGYWGQGTQVTVSS”, the “polyreactivity (PSR sort gate)” value is reported as “low polyreactivity”. For “QVQLVESGGGLVQAGGSLRLSCAASGRIFRYYTMGWYRQAPGKVRELVAAITRRGGITNYADSVTGRFTISRDNAKNTVYLQMNSLKPEDTAVYYCAAKSVSQGDDYWGQGTQVTVSS”, the “polyreactivity (PSR sort gate)” value was “high polyreactivity”. In the case of “QVQLVESGGGLVQAGGSLRLSCAASGRIFRYYVLGWYRQAPGKERELVATINWSGSRTYYADSVKGRFTISRDNAKNTVYLQMNSLKPEDTAVYYCAARTFNTYPRYYYWGQGTQVTVSS”, the “polyreactivity (PSR sort gate)” value is reported as “high polyreactivity”. With “QVQLVESGGGLVQAGGSLRLSCAASGRIFRYYVMGWYRQAPGKERELVAAISRSGGSTRYADSVKGRFTISRDNAKNTVYLQMNSLKPEDTAVYYCAATSRSYNDYDYWGQGTQVTVSS” the “polyreactivity (PSR sort gate)” value was “high polyreactivity”. In the case of “QVQLVESGGGLVQAGGSLRLSCAASGRIFSANAMGWYRQAPGKERELVAAITRGDNTYYADSVKGRFTISRDNAKNTVYLQMNSLKPEDTAVYYCATEGYQIQYEHDYWGQGTQLTVSS”, the “polyreactivity (PSR sort gate)” value is reported as “low polyreactivity”. With “QVQLVESGGGLVQAGGSLRLSCAASGRIFSDYAMGWYIQAPGKERELVAAISWGGGRTYYADSVKGRFTISRDNAKNTVYLQMNSLKPEDTAVYYCNRGTVNSWARGYWGQGTQVTVSS” the “polyreactivity (PSR sort gate)” value was “high polyreactivity”. With “QVQLVESGGGLVQAGGSLRLSCAASGRIFSDYAMGWYRQAPGKERELVAAISRSGTRTYYADSVKGRFTISRDNAKNTVYLQMNSLKPEDTAVYSCAAKTPYGRAGQEEDYCGQGTQVTVSS” the “polyreactivity (PSR sort gate)” value was “high polyreactivity”. With “QVQLVESGGGLVQAGGSLRLSCAASGRIFSFYAMGWYRQAPGKERELVATISKRAGSTYYADSVKGRFTISRDNAKNTVYLQMNSLKPEDTEVYYCYAYKRGYLYRYNYWGQGTQVTVSS” the “polyreactivity (PSR sort gate)” value was “high polyreactivity”. In the case of “QVQLVESGGGLVQAGGSLRLSCAASGRIFSFYTMGWYRQAPGKERELVAAITWRGGSTYYADSVKGRFTISRDNAKNTVYLQMNSLKPEDTAVYYCAAEVYGAVYDYWGQGTQVTVSS”, the “polyreactivity (PSR sort gate)” value is reported as “low polyreactivity”. With “QVQLVESGGGLVQAGGSLRLSCAASGRIFSGNAMGWYRQAPGKERELVARISRSGSNTYYADSVKGRFTISRDNAKNTVYLQMKSLKPEDTAVYYCAAKSTYWPYDRTYNSWGQVTQVTVSS” the “polyreactivity (PSR sort gate)” value was “high polyreactivity”. For “QVQLVESGGGLVQAGGSLRLSCAASGRIFSGYAMGWDRQAPGKERELVAAITSRSGSTYYADSVKGRFTISRDNAKNTVYLQMNSLKPEDTAVYYCAKRLYKPGNVFYSVDQSDYWGQGTQVTVSS”, the “polyreactivity (PSR sort gate)” value was “low polyreactivity”. For “QVQLVESGGGLVQAGGSLRLSCAASGRIFSGYAMGWYRQAPGKEREFVAAITSSGRTKYADSVKGRFTISRDNAKNTVYLQMNSLKPEDTAVYYCAARPSQWNYDYRRVYYWGQGTQVTVSS”, the “polyreactivity (PSR sort gate)” value was “high polyreactivity”. For “QVQLVESGGGLVQAGGSLRLSCAASGRIFSGYAMGWYRQAPGKERELVAAITSGASTNYADSVKGRFTISRDNAKNTVYLQMNSLKPEDTAVYYCAATYHTWRGQYLWYDYWGQGTQVTVSW”, the “polyreactivity (PSR sort gate)” value was “low polyreactivity”. With “QVQLVESGGGLVQAGGSLRLSCAASGRIFSGYAMGWYRQAPGKERELVAAITSVGSTNYADSVKGRFTISRDNAKNNVYLQMNSLKPEDTAVYYCAARSQSYYRYRSYGYWGQGTQVTVSS” the “polyreactivity (PSR sort gate)” value was “high polyreactivity”. With “QVQLVESGGGLVQAGGSLRLSCAASGRIFSGYAMGWYRQAPGKERELVAAITSVGSTNYADSVKGRFTISRDNAKYTVYLQMNSLKPEDTAVYYCAKDTGQGYYWGQGTQVTVSS” the “polyreactivity (PSR sort gate)” value was “high polyreactivity”. With “QVQLVESGGGLVQAGGSLRLSCAASGRIFSGYAMGWYRQAPGKEWELVAAITWSGGSTYADSVKGRFTISRDNAKHTVYLQMNTLKPEDTAVYYCNTSARYNGSYKYDYWGQGTQVTVSS” the “polyreactivity (PSR sort gate)” value was “low polyreactivity”. In the case of “QVQLVESGGGLVQAGGSLRLSCAASGRIFSHYAMAWYRQAPGKERELVAAITSDRSTNYADSVKGRFTISRDNANNTVYLQMNSLKPDDTAVYYCAKYVHIPYYYYLFGSYDYWGQGTQVTVSS”, the “polyreactivity (PSR sort gate)” value is reported as “low polyreactivity”. With “QVQLVESGGGLVQAGGSLRLSCAASGRIFSHYAMGWYRQAPGKERELVAAINRSGGSTYYADSVKGRFTISRDNAKNTVYLQMNSLKPEDTAVYYCAATSLRRYGYNYWGQGTQVTVSS” the “polyreactivity (PSR sort gate)” value was “high polyreactivity”. For “QVQLVESGGGLVQAGGSLRLSCAASGRIFSHYAMGWYRQAPGKERELVAAITWSGGRTYYADSVKGRFTISRDNAKNTVYLQMNSLKPEDTAVYYCNAYPSSSLFDYWGQGTQVTVSS”, the “polyreactivity (PSR sort gate)” value was “low polyreactivity”. With “QVQLVESGGGLVQAGGSLRLSCAASGRIFSKYAMGWNRQAPGKERELVAAITSSTKYADSVKGRFTISRDNAKNTVYLQMNSLKPEDTAVYYCNAEFGWHTYYGADFKMDYWGQGTQVTVSS” the “polyreactivity (PSR sort gate)” value was “high polyreactivity”. For “QVQLVESGGGLVQAGGSLRLSCAASGRIFSKYAMGWYRQAPGKEMELDAAITRSGGSTYYADSVKGRFTISRDNAKNTVYLQMNSLKPEDTAVYYCNAGTYSTSVPYRYNYWGQGTQVTVSS”, the “polyreactivity (PSR sort gate)” value was “high polyreactivity”. In the case of “QVQLVESGGGLVQAGGSLRLSCAASGRIFSLNAMGWYRQAPGKERELVAGIRKRGGSTYYADSVKGRFTISRDNAKNTVYLQMNSLKPEDTAVYYCAARFYYGPGGYTMYYWGQGTQVTVSS”, the “polyreactivity (PSR sort gate)” value is reported as “high polyreactivity”. With “QVQLVESGGGLVQAGGSLRLSCAASGRIFSNNVMGWNRQGPGKERELVATISTDGRTNYADSVKGRFTISRDNAKNTVYLQMNSQKPEDTAVSYCAATGVTLLLSSKSDYWGQGTQVTVSS” the “polyreactivity (PSR sort gate)” value was “low polyreactivity”. In the case of “QVQLVESGGGLVQAGGSLRLSCAASGRIFSNYAMGWYRQAPGKERELVAAISYSGDSTYYADSVKGRFTISRDNAKNTVYLQMNSLKPEDTAVYYCAAVRSYRRYPQSSDLYYYWGQGTQVTVSS”, the “polyreactivity (PSR sort gate)” value is reported as “high polyreactivity”. For “QVQLVESGGGLVQAGGSLRLSCAASGRIFSPNAMGWYRQAPGKERELVAAISWRGRTYYADSVKGRFTISRDNAKNTVYLQMNSLKPEDTAVYYCNAPYKYVRGDYWGQGTQVTVSS”, the “polyreactivity (PSR sort gate)” value was “high polyreactivity”. For “QVQLVESGGGLVQAGGSLRLSCAASGRIFSPNAMGWYRQAPGKERELVAAITRGGSTNYADSVKGRFTISRDNAKNTVYLQMNSLKPEDTAVYYCAAQLAKTISGRGYNSWGQGTQVTVSS”, the “polyreactivity (PSR sort gate)” value was “low polyreactivity”. For “QVQLVESGGGLVQAGGSLRLSCAASGRIFSPYAMGWYRQAPGKERELVAAISSSGTYYADSVKGRFTISRDNAKNTVYLQMNSLKPEDTAVYYCNARRYWGRYDYWGQGTQVTVSS”, the “polyreactivity (PSR sort gate)” value was “high polyreactivity”.

Reference: the nanobody polyreactivity screen of Harvey et al. (2022)
